First the molecules themselves.
B2: Tryptophan synthase β subunit (TrpB) from Francisella tularensis (enzyme)
chain: MSKLNAYFGEYGGQFVPQILVPALDQLEQEFIKAQADESFKQEFKELLQEYAGRPTALTKTRNIVKNTRTKLYLKREDLLHGGAHKTNQVLGQALLAKRMGKKEIIAETGAGQHGVATALACALLDLKCRVYMGAKDVERQSPNVFRMKLMGAEVIPVHSGSATLKDACNEALRDWSANYSKAHYLLGTAAGPHPFPTIVREFQRMIGEETKQQMLAKEGRLPDAVIACVGGGSNAIGMFADFIDEKNVKLIGVEPAGKGIETGEHGAPLKHGKTGIFFGMKAPLMQNSDGQIEESYSISAGLDFPSVGPQHAHLLAIGRAKYASATDDEALDAFKLLCKKEGIIPALESSHALAHALKLAYEDPNKEQLLVVNLSGRGDKDIFTVHDILKEKGEI
notes: also called FtTrpB; β subunit of FtTrpAB

For series [1], the target named is B2. Briefly: crystal structure. The note with it: both partners purified.
The series “crystal structure” concerns the molecule itself. Briefly: crystal structure.

B1: Tryptophan synthase α subunit (TrpA) from Francisella tularensis (enzyme)
chain: SNAMTNRYTTLFANLEKRNEGAFIPFVTIGDPNKALSFEIIDTLVSSGADALELGIPFSDPLADGPTIQEANIRALESGITPKDCFDILTKIRAKYPHIPIGLLLYANLVYANGIENFYQKCLDAGVDSILIADVPAHESKEFRDIAKKVGIAQIFIAPPDASESTLKQISELGSGYTYLLSRVGVTGTETAANMPVEDVLTKLREYNAPKPVLGFGISKPEQVQQAIKAGAAGAISGSATVKIIQNNISNKQKMLNELTYFVKEMKAATLN
notes: also called FtTrpA; α subunit of FtTrpAB
As for B1, the binding result in series [1] is “binds”.

Take B2: the binding result in “crystal structure” is given as “binds”.

The values above are taken from paper PMC6608616 (IUCrJ, 2019).
